Results on one protein are retold here after paper PMC3782427, “The N-Terminal Region of the Human Autophagy Protein ATG16L1 Contains a Domain That Folds into a Helical Structure Consistent with Formation of a Coiled-Coil” (PLoS ONE, 2013).

This series deals with the molecule itself. As to the kind of experiment: native gel or EMSA; Native-PAGE, Novex 4-20% Tris-glycine native gel, 1 ug protein a lane, before and after freeze/thawing at -80 C. (In general: A gel shift assay detects complexes by their altered migration in electrophoresis.)

B1: human ATG16L1 coiled-coil domain construct 3 (CCD3-FLAG-6His), residues M126-A207 (domain or fragment, UniProt Q676U5-1 126-207, looked up)
chain: MNEAKIAECLQTISDLETECLDLRTKLCDLERANQTLKDEYDALQITFTALEGKLRKTTEENQELVTRWMAEKAQEANRLNA
notes: human ATG16L1 isoform 1 (NP_110430.5, full length M1-Y607), coiled-coil domain, residues M126-A207; amplified from pCMV-FLAG-ATG16L1; Expressed as GST-CCD3-FLAG-6His with a TEV site between GST and the insert; Calculated molecular weight printed as 11.3 kDa; also called CCD3FH; minimal coiled-coil domain; source: E. coli Rosetta 2, purified (glutathione sepharose, on column TEV cleavage, HIC); …
A word on the stoichiometry N: it is the number of molecules, sites or subunits per partner or assembly. Regarding B1, the “stoichiometry N” value is 2.
